Measurements taken from article PMC8934665, “AT-hook peptides bind the major and minor groove of AT-rich DNA duplexes”.

Tests used:
Conditions in all cases: tags: none; hairpin, 9 bp stem, 4 nt loop
[1] = biological target: T1, ATHP2 (AT-hook peptide 2) (mammalian (species ), UniProt P52926 45-53); test: native IMS-MS; Hoechst 33258 in minor groove, 1:1:1 complex; ITC, UV melting and fluorescence in 1xBPE (6 mM Na2HPO4, 2 mM NaH2PO4, 1 mM Na2EDTA, pH 7.0), ITC 10 uM DNA; native MS probably in ammonium acetate (concentration not given); temperature not stated
T1 chain: PKRPRGRPK

[2] = biological target: T2, ATHP1 (AT-hook peptide 1) (mammalian (species ), UniProt P52926 26-34); test: ITC; two-site model, site 2, n2 = 1.4; ITC, UV melting and fluorescence in 1xBPE (6 mM Na2HPO4, 2 mM NaH2PO4, 1 mM Na2EDTA, pH 7.0), ITC 10 uM DNA; native MS probably in ammonium acetate (concentration not given); temperature not stated
T2 chain: KRGRGRPRK

[3] = biological target: T3, ATHP3 (AT-hook peptide 3) (mammalian (species ), UniProt P52926 74-83); test: ITC; two-site model, site 2, n2 = 1.1; ITC, UV melting and fluorescence in 1xBPE (6 mM Na2HPO4, 2 mM NaH2PO4, 1 mM Na2EDTA, pH 7.0), ITC 10 uM DNA; native MS probably in ammonium acetate (concentration not given); temperature not stated
T3 chain: KRPRGRPRKW

[4] = biological target: T2, ATHP1 (AT-hook peptide 1); test: ITC; two-site model, site 1, n1 = 1.3; ITC, UV melting and fluorescence in 1xBPE (6 mM Na2HPO4, 2 mM NaH2PO4, 1 mM Na2EDTA, pH 7.0), ITC 10 uM DNA; native MS probably in ammonium acetate (concentration not given); temperature not stated
[5] = biological target: T3, ATHP3 (AT-hook peptide 3); test: as above

Binder: GGATATTGCCCCCGCAATATCC (structured_DNA) [FL876]
- binding result [1]: binds
- Ka [2]: 4e+06 M⁻¹
- Ka [3]: 1.1e+06 M⁻¹
- Ka [4]: 1.9e+08 M⁻¹
- Ka [5]: 1.1e+07 M⁻¹
